Results reported in article PMC8511477 (Synthetic Biology, 2021).

Key:
Details in all cases: 2.5 mM ATP, 0.5 mM CoA, 5 mM MgCl2, pH 7.5, 37 °C
EcACS = target: T1, EcACS (Escherichia coli, UniProt P27550)
T1 construct: gene acs

ArACS = tested on: T2, ArACS; assay: myokinase/pyruvate kinase/lactate dehydrogenase coupled NADH assay, […] nm; format: biochemical
T2 construct: gene acs; C-terminal 6xHis (pET29b+), expressed in E. coli BL21*(DE3) delta-patZ, Ni-NTA purified; species only in supplement

purified protein [1] = substrate: O=CO; assay: purified protein
purified protein [2] = substrate: CC(=O)O; assay: purified protein

`CC(=O)O` [acetate] was tested, and the km (EcACS) was “We assayed these homologs using formate as well as acetate, the likely native substrate”.

`O=CO` [formate] was tested, and the Km (ArACS) was 38.5 ± 19.3 mM.

B1: EcACS (Escherichia coli K-12) (protein)
chain: MSQIHKHTIPANIADRCLINPQQYEAMYQQSINVPDTFWGEQGKILDWIKPYQKVKNTSFAPGNVSIKWYEDGTLNLAANCLDRHLQENGDRTAIIWEGDDASQSKHISYKELHRDVCRFANTLLELGIKKGDVVAIYMPMVPEAAVAMLACARIGAVHSVIFGGFSPEAVAGRIIDSNSRLVITSDEGVRAGRSIPLKKNVDDALKNPNVTSVEHVVVLKRTGGKIDWQEGRDLWWHDLVEQASDQHQAEEMNAEDPLFILYTSGSTGKPKGVLHTTGGYLVYAALTFKYVFDYHPGDIYWCTADVGWVTGHSYLLYGPLACGATTLMFEGVPNWPTPARMAQVVDKHQVNILYTAPTAIRALMAEGDKAIEGTDRSSLRILGSVGEPINPEAWEWYWKKIGNEKCPVVDTWWQTETGGFMITPLPGATELKAGSATRPFFGVQPALVDNEGNPLEGATEGSLVITDSWPGQARTLFGDHERFEQTYFSTFKNMYFSGDGARRDEDGYYWITGRVDDVLNVSGHRLGTAEIESALVAHPKIAEAAVVGIPHNIKGQAIYAYVTLNHGEEPSPELYAEVRNWVRKEIGPLATPDVLHWTDSLPKTRSGKIMRRILRKIAAGDTSNLGDTSTLADPGVVEKLLEEKQAIAMPS
B1 gave a Km (purified protein [1]) of 54.4 ± 14.9 mM.

B2: MhACS (Marinithermus hydrothermalis DSM 14884) (protein)
chain: MERIEAVLKENRRFEPPEEFRKRARIQSEAEYEALYRESLEDPEAFWGRVAEELHWFEPWTQVLEWNPPHARWFVNGKTNLSYNALDRHVATWRKNKAAIIWEGEPGEERVLTYHDLWREVQRFANALKQLGVGKGDRVTIYMPMIPETAIAMLACARIGAVHSVVFGGFSANALAERIKDAEAKLLITADGGYRRGRVVPLKAQADEALAETPSVEHVVVVRRTGEAVPMQPGRDHWYHELVESVPDHCPPEVMDAEDPLFILYTSGSTGKPKGVLHTTGGYMVYTYLTTKLVFDLKDEDTYWCTADVGWITGHSYIVYGPLVNGATTLMYEGAPNHPEPDRFWRIVDKYGVTIFYTAPTAIRAFMKWGEAWPRKHRLDSLRLLGTVGEPINPEAWLWYHQVIGQGRCPIVDTWWQTETGGIMITTLPGAHAAKPGFAGKPFFGVAPEIRDAEGNRVETPEEGGYLVLTRPWPSMLRTVWGDPERYRRQYWSQYPDAYFTGDGARRDADGYYLILGRVDDVLNVAGHRLGTMELESALVSHPDVAEAAVVGRPHPEKGEAIVAFVTLKSHARPSEALREALKAHVANTIGPIARPDEIRFAEALPKTRSGKIMRRLLRQIAAGETEIKGDTSTLEDREVVEQLKRGE
Molecule B2 has a Km (purified protein [2]) of 0.089 ± 0.060 mM and a kcat (purified protein [2]) of 15.1 s⁻¹.
